The target in assay [1] is antibodies against ISV in serum sample IHUS#B09032311A20. As to the kind of experiment: ECL bridging assay, drug displacement; competitor of labelled ISV SEQ ID NO:1.
The target of assay [2] is antibodies against ISV in serum sample IHUS#B09032311A3. Described as above.
For assay [3], the target named is serum sample IHUS#B09032311A1. The description is as above.
The target in assay [4] is affinity purified antibody IHuP#002-001-ABL-08. As to the kind of experiment: ECL bridging/competition assay, 10 ug/ml ISV with 400 ng/ml analytical antibody; competitor of labelled ISV.
Assay [5] concerns the target purified interference factor(s) from serum of Donor A. Nature of the assay: SPR, interference factor on CM5 chip.
In assay [6] the target is purified interference factor(s) from serum of Donor B. As to the kind of experiment: SPR, interference factor on CM5 chip. Background: In SPR one partner is held on a chip, and binding of the other changes the refractive index at the surface.
Assay [7] has as its target purified interference factor(s) from serum of Donor C. Nature of the assay: SPR, interference factor on CM5 chip.
The target in assay [8] is monoclonal antibody 21-4-3. As to the kind of experiment: SPR, 21-4-3 captured via anti-mouse IgG, 500 nM.
Chain of monoclonal antibody 21-4-3 (VH, as listed by the source, chain 1 of 2): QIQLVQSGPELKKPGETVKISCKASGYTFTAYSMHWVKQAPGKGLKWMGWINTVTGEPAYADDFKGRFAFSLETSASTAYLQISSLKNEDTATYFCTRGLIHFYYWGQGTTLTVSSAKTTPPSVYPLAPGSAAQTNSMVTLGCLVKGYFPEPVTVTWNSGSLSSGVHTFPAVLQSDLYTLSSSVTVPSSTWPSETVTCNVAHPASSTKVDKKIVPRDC
Chain of monoclonal antibody 21-4-3 (VL, as listed by the source, chain 2 of 2): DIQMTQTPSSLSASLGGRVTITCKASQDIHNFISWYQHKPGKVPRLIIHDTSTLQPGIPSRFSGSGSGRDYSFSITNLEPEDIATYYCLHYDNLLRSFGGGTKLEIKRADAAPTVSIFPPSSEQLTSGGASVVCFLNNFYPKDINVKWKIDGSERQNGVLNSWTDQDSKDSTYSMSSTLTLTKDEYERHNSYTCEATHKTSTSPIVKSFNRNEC

From EP4350345A2 come the findings set out here.

Where a chain is given by its changes, count along the chain named. Names and notes keep the numbering of the source.

B1: Example 1C: (A14P,R39Q,K83R,T91Y,Q108L) (VHH)
VHH: EVQLVESGGGLVQPGGSLRLSCAASGRTFNNYAMGWFRQAPGKEREFVAAITRSGVRSGVSAIYGDSVKDRFTISRDNAKNTLYLQMNSLRPEDTAVYYCAASAIGSGALRRFEYDYSGQGTLVTVSS
For B1, the % reduction came to 97% in assay [1], 90% in assay [2], 6% in assay [3] and 91.4% in assay [4]. The ECLU confirmatory assay in assay [1] was found to be 570 ECLU; in assay [2], 228 ECLU; in assay [3], 58 ECLU; in assay [4], 251 ECLU.

B2: Example 1C: (A14P,K83R,Q108L) (VHH)
VHH: B1 VHH with Q39R, Y99T
Regarding B2, the % reduction in assay [1] was found to be 97%; in assay [2], 93%; in assay [3], 8%; in assay [4], 89.1%. Besides, the ECLU confirmatory assay in assay [1] was 628 ECLU; in assay [2], 156 ECLU; in assay [3], 57 ECLU; in assay [4] it was 319 ECLU.

B3: Nanobody or Nanobody construct of SEQ ID NO: 85 (VHH)
VHH: EVQLVESGGGSVQPGGSLRLSCAASRSIGRLDRMGWYRHRPGEPRELVATITGGSSINYGDSVKGRFTISIDNSKNTVYLQMNSLRPEDTAVYYCNFNKYVTSRDTWGQGTLVQVGG
Regarding B3, the binding as % of Reference Sequence (=100%) in assay [5] amounted to 46%; in assay [6], 5%; in assay [7] it was 42%; in assay [8] it was 32%.

B4: Nanobody or Nanobody construct of SEQ ID NO: 89 (VHH)
VHH: B3 VHH with P14A
Turning to B4, the binding as % of Reference Sequence (=100%) was 14% in assay [5], 5% in assay [6], 17% in assay [7] and 2% in assay [8].

B5: Nanobody or Nanobody construct of SEQ ID NO: 87 (VHH)
VHH: B3 VHH with Q114T
For the molecule B5, the binding as % of Reference Sequence (=100%) stood at 51% in assay [5], 5% in assay [6], 39% in assay [7] and 41% in assay [8].
